Results reported in paper PMC3154423.

Legend:
Experiment in all cases: ITC
[1] = molecular target: Jun bZIP K273A;Fos bZIP K148A (human;human, UniProt P05412;P01100 252-315;137-200, K273A|K148A)
[2] = molecular target: Jun bZIP R263A;Fos bZIP K153A (human;human, UniProt P05412;P01100 252-315;137-200, R263A|K153A)
Jun-Jun bZIP R263A = Jun-Jun bZIP R263A (human, UniProt P05412 252-315, R263A)
[3] = molecular target: Jun bZIP R259A;Fos bZIP R143A (human;human, UniProt P05412;P01100 252-315;137-200, R259A|R143A)
Jun bZIP R259A;Fos bZIP R143A, sequence (P05412 252-315 R259A, chain 1 of 2): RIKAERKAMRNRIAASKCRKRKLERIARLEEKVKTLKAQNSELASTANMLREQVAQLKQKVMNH
Jun bZIP R259A;Fos bZIP R143A, sequence (P01100 137-200 R143A, chain 2 of 2): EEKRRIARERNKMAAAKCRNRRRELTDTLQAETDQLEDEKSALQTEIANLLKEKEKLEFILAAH

[4] = molecular target: Jun bZIP R270A;Fos bZIP K153A (human;human, UniProt P05412;P01100 252-315;137-200, R270A|K153A)
Jun bZIP R270A;Fos bZIP K153A, sequence (P05412 252-315 R270A, chain 1 of 2): as the sequence (P05412 252-315 R259A, chain 1 of 2) above, with A8R, R19A counted along it
Jun bZIP R270A;Fos bZIP K153A, sequence (P01100 137-200 K153A, chain 2 of 2): as the sequence (P01100 137-200 R143A, chain 2 of 2) above, with A7R, K17A counted along it

[5] = molecular target: Jun bZIP R263A;Fos bZIP R157A (human;human, UniProt P05412;P01100 252-315;137-200, R263A|R157A)
Jun bZIP R263A;Fos bZIP R157A, sequence (P05412 252-315 R263A, chain 1 of 2): as the sequence (P05412 252-315 R259A, chain 1 of 2) above, with A8R, R12A counted along it
Jun bZIP R263A;Fos bZIP R157A, sequence (P01100 137-200 R157A, chain 2 of 2): as the sequence (P01100 137-200 R143A, chain 2 of 2) above, with A7R, R21A counted along it

[6] = molecular target: Jun bZIP K268A;Fos bZIP R158A (human;human, UniProt P05412;P01100 252-315;137-200, K268A|R158A)
Jun bZIP K268A;Fos bZIP R158A, sequence (P05412 252-315 K268A, chain 1 of 2): as the sequence (P05412 252-315 R259A, chain 1 of 2) above, with A8R, K17A counted along it
Jun bZIP K268A;Fos bZIP R158A, sequence (P01100 137-200 R158A, chain 2 of 2): as the sequence (P01100 137-200 R143A, chain 2 of 2) above, with A7R, R22A counted along it

[7] = molecular target: Jun bZIP R261A;Fos bZIP K153A (human;human, UniProt P05412;P01100 252-315;137-200, R261A|K153A)
Jun bZIP R261A;Fos bZIP K153A, sequence (P05412 252-315 R261A, chain 1 of 2): as the sequence (P05412 252-315 R259A, chain 1 of 2) above, with A8R, R10A counted along it
Jun bZIP R261A;Fos bZIP K153A, sequence (P01100 137-200 K153A, chain 2 of 2): as the sequence (P01100 137-200 R143A, chain 2 of 2) above, with A7R, K17A counted along it

[8] = molecular target: Jun bZIP K273A;Fos bZIP R158A (human;human, UniProt P05412;P01100 252-315;137-200, K273A|R158A)
Jun bZIP K273A;Fos bZIP R158A, sequence (P05412 252-315 K273A, chain 1 of 2): as the sequence (P05412 252-315 R259A, chain 1 of 2) above, with A8R, K22A counted along it
Jun bZIP K273A;Fos bZIP R158A, sequence (P01100 137-200 R158A, chain 2 of 2): as the sequence (P01100 137-200 R143A, chain 2 of 2) above, with A7R, R22A counted along it

[9] = molecular target: Jun bZIP R270A;Fos bZIP R144A (human;human, UniProt P05412;P01100 252-315;137-200, R270A|R144A)
Jun bZIP R270A;Fos bZIP R144A, sequence (P05412 252-315 R270A, chain 1 of 2): as the sequence (P05412 252-315 R259A, chain 1 of 2) above, with A8R, R19A counted along it
Jun bZIP R270A;Fos bZIP R144A, sequence (P01100 137-200 R144A, chain 2 of 2): as the sequence (P01100 137-200 R143A, chain 2 of 2) above, with A7R, R8A counted along it

[10] = molecular target: Jun bZIP K258A;Fos bZIP K153A (human;human, UniProt P05412;P01100 252-315;137-200, K258A|K153A)
Jun bZIP K258A;Fos bZIP K153A, sequence (P05412 252-315 K258A, chain 1 of 2): as the sequence (P05412 252-315 R259A, chain 1 of 2) above, with K7A, A8R counted along it
Jun bZIP K258A;Fos bZIP K153A, sequence (P01100 137-200 K153A, chain 2 of 2): as the sequence (P01100 137-200 R143A, chain 2 of 2) above, with A7R, K17A counted along it

[11] = molecular target: Jun bZIP R270A;Fos bZIP R158A (human;human, UniProt P05412;P01100 252-315;137-200, R270A|R158A)
Jun bZIP R270A;Fos bZIP R158A, sequence (P05412 252-315 R270A, chain 1 of 2): as the sequence (P05412 252-315 R259A, chain 1 of 2) above, with A8R, R19A counted along it
Jun bZIP R270A;Fos bZIP R158A, sequence (P01100 137-200 R158A, chain 2 of 2): as the sequence (P01100 137-200 R143A, chain 2 of 2) above, with A7R, R22A counted along it

Jun-Jun bZIP K258A = Jun-Jun bZIP K258A (human, UniProt P05412 252-315, K258A)
Jun-Jun bZIP K258A, sequence (P05412 252-315 K258A): as the sequence (P05412 252-315 R259A, chain 1 of 2) above, with K7A, A8R counted along it

[12] = molecular target: Jun bZIP K258A;Fos bZIP R143A (human;human, UniProt P05412;P01100 252-315;137-200, K258A|R143A)
Jun bZIP K258A;Fos bZIP R143A, sequence (P05412 252-315 K258A, chain 1 of 2): as the sequence (P05412 252-315 R259A, chain 1 of 2) above, with K7A, A8R counted along it
Jun bZIP K258A;Fos bZIP R143A, sequence (P01100 137-200 R143A, chain 2 of 2): as the sequence (P01100 137-200 R143A, chain 2 of 2) above

[13] = molecular target: Jun bZIP R272A;Fos bZIP K148A (human;human, UniProt P05412;P01100 252-315;137-200, R272A|K148A)
Jun bZIP R272A;Fos bZIP K148A, sequence (P05412 252-315 R272A, chain 1 of 2): as the sequence (P05412 252-315 R259A, chain 1 of 2) above, with A8R, R21A counted along it
Jun bZIP R272A;Fos bZIP K148A, sequence (P01100 137-200 K148A, chain 2 of 2): as the sequence (P01100 137-200 R143A, chain 2 of 2) above, with A7R, K12A counted along it

[14] = molecular target: Jun bZIP R272A;Fos bZIP R157A (human;human, UniProt P05412;P01100 252-315;137-200, R272A|R157A)
Jun bZIP R272A;Fos bZIP R157A, sequence (P05412 252-315 R272A, chain 1 of 2): as the sequence (P05412 252-315 R259A, chain 1 of 2) above, with A8R, R21A counted along it
Jun bZIP R272A;Fos bZIP R157A, sequence (P01100 137-200 R157A, chain 2 of 2): as the sequence (P01100 137-200 R143A, chain 2 of 2) above, with A7R, R21A counted along it

[15] = molecular target: Jun bZIP K258A;Fos bZIP R146A (human;human, UniProt P05412;P01100 252-315;137-200, K258A|R146A)
Jun bZIP K258A;Fos bZIP R146A, sequence (P05412 252-315 K258A, chain 1 of 2): as the sequence (P05412 252-315 R259A, chain 1 of 2) above, with K7A, A8R counted along it
Jun bZIP K258A;Fos bZIP R146A, sequence (P01100 137-200 R146A, chain 2 of 2): as the sequence (P01100 137-200 R143A, chain 2 of 2) above, with A7R, R10A counted along it

Jun-Jun bZIP R263A, sequence (P05412 252-315 R263A): as the sequence (P05412 252-315 R259A, chain 1 of 2) above, with A8R, R12A counted along it
Jun bZIP R263A;Fos bZIP K153A, sequence (P05412 252-315 R263A, chain 1 of 2): as the sequence (P05412 252-315 R259A, chain 1 of 2) above, with A8R, R12A counted along it
Jun bZIP R263A;Fos bZIP K153A, sequence (P01100 137-200 K153A, chain 2 of 2): as the sequence (P01100 137-200 R143A, chain 2 of 2) above, with A7R, K17A counted along it
Jun bZIP K273A;Fos bZIP K148A, sequence (P05412 252-315 K273A, chain 1 of 2): as the sequence (P05412 252-315 R259A, chain 1 of 2) above, with A8R, K22A counted along it
Jun bZIP K273A;Fos bZIP K148A, sequence (P01100 137-200 K148A, chain 2 of 2): as the sequence (P01100 137-200 R143A, chain 2 of 2) above, with A7R, K12A counted along it

B1: TRE duplex 15-mer (dsDNA)
DNA 1: CGCGTGACTCACCCC
DNA 2: GGGGTGAGTCACGCG
Kd [1]: 0.76 ± 0.01 µM | Kd [2]: 1.15 ± 0.08 µM | Kd (Jun-Jun bZIP R263A): 2.14 ± 0.1 µM | Kd [3]: 3.49 ± 0.14 µM | Kd [4]: 1.61 ± 0.15 µM | Kd [5]: 1.74 ± 0.03 µM | Kd [6]: 0.43 ± 0.02 µM | Kd [7]: 0.61 ± 0.05 µM | Kd [8]: 0.68 ± 0.03 µM | Kd [9]: 6.7 ± 0.41 µM | Kd [10]: 0.54 ± 0.03 µM | Kd [11]: 1.54 ± 0.05 µM | Kd (Jun-Jun bZIP K258A): 4.43 ± 0.19 µM | Kd [12]: 0.86 ± 0.07 µM | Kd [13]: 0.71 ± 0.02 µM | Kd [14]: 0.43 ± 0.02 µM | Kd [15]: 0.66 ± 0.01 µM
